Source: US20240294670A1 (University of Texas, published 2024)

How the values were obtained:
recombinant human CHI3L1 = biological target: T1, recombinant human CHI3L1 (human, UniProt P36222 22-383); experiment: Octet BLI
T1 construct: His-tagged recombinant protein (Sino Biological 11227-H08H, or in-house HEK293 protein with 6xHIS-tag and avi-tag); also called hCHI3L1; hChi3l1

recombinant mouse CHI3L1 = biological target: T2, recombinant mouse CHI3L1 (mouse, UniProt Q61362 30-389, limits assumed); experiment: Octet BLI
T2 construct: His-tagged; also called mCHI3L1; mChi3l1
T2 sequence (Q61362 30-389 limits assumed): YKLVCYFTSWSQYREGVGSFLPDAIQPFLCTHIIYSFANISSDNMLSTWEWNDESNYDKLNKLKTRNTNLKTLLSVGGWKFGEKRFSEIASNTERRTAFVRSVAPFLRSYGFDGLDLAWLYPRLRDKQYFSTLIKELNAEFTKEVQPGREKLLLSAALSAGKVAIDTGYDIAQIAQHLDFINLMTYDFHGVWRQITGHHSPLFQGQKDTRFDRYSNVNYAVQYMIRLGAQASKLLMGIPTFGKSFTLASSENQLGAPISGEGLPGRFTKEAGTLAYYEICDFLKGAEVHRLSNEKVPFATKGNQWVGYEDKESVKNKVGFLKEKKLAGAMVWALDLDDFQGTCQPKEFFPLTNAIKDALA

T1 sequence (P36222 22-383 limits assumed): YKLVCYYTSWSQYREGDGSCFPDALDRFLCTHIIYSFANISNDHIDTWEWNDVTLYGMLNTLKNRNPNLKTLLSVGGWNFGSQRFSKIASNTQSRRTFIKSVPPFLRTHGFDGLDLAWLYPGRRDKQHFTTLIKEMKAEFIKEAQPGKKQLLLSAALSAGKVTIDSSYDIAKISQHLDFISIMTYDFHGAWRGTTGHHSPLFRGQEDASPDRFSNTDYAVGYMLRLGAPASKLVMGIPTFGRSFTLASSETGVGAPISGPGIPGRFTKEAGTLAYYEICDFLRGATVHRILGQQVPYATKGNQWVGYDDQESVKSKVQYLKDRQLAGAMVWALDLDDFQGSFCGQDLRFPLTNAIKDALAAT

Kd (recombinant human CHI3L1): 4.5 nM
koff (recombinant human CHI3L1): 0.000635 s⁻¹
kon (recombinant human CHI3L1): 141000 M⁻¹ s⁻¹
Kd (recombinant mouse CHI3L1): 4.44 nM
koff (recombinant mouse CHI3L1): 0.00095 s⁻¹
kon (recombinant mouse CHI3L1): 214000 M⁻¹ s⁻¹
B1: humanized C59 antibody C59Hu (antibody, V domains shown)
VH: EVQLVESGGGLVQPGGSLRLSCAASGFTISSDYYMCWVRQAPGKGLEWIGCIYIGSGTDTYYADSVKGRFTISKHNSKNTLYLQMTSLRAEDTAVYYCARDKGWSNAWGFYFQLWGQGTLVTVSS
VL: DIQMTQSPSSLSASVGDRVTITCQASQSIGKYLNWYQQKPGKAPKLLIYSSSSLASGVPSRFSGSGFGTDFTLTISSLQPEDFATYYCQQGYSYVDLENGFGGGTKVEIK
notes: Humanized form of C59
